Assay [1] deals with T1, interleukin 5 (IL5) (human, UniProt P05113 20-134).
T1 construct: also called human IL5 (R&D Systems)
T1 sequence (looked up): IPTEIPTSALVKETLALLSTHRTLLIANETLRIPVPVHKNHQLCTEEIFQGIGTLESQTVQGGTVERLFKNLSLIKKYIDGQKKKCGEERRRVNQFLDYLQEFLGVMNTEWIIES
The experiment in a line: phage competition ELISA: Fab-phage incubated 2 h with serial dilutions of the antigen in solution, unbound phage captured on antigen-coated wells, anti-M13-HRP; IC50 = antigen concentration inhibiting 50% of phage binding. How it is done:
(§1) Fab displaying phage was first incubated with serial dilutions of the respective antigens in solution for 2 h, unbound phage was then briefly captured by antigen coated ELISA wells and detected with anti-M13 HRP conjugate. The concentration of antigen inhibiting 50% of phage binding to antigen coated well is calculated as IC₅₀. NB denotes no detectable binding of phage clone directly to the antigens coated wells.

Assay [2] concerns the target T2, interleukin 4 (IL4) (UniProt P05112 25-153).
T2 sequence (looked up): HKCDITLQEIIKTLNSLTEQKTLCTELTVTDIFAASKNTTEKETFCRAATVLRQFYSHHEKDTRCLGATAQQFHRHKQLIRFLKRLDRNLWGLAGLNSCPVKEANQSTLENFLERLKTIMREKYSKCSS
The assay is described as above. How it is done:
as §1

Assay [3] has as its target T3, interleukin 13 (IL13) (UniProt P35225 35-146, limits assumed). The experiment in a line: phage ELISA: direct binding of the phage clone to antigen-coated wells (NB = no detectable binding).
Assay [4] has as its target T1, interleukin 5 (IL5). Described as above.
Assay [5] deals with T2, interleukin 4 (IL4). The experiment in a line: phage ELISA, Fab-displaying phage on IL4.
Text: Anti-gD antibody was directly coated on ELISA wells, whereas IL4 was captured with a non-blocking anti-IL4 antibody coated on ELISA wells.
Assay [6] deals with T1, interleukin 5 (IL5). The experiment in a line: ELISA: human IgG1 at 250 nM on protein-coated wells, anti-Fc-HRP.
For assay [7], the target named is T4, HER2 ECD.
T4 construct: one of the irrelevant proteins; also called irrelevant protein coated on ELISA wells
The description is as above.

Assay [8] addresses T3, interleukin 13 (IL13). Described as above.
Assay [9] addresses T5, BSA (bovine, UniProt P02769).
T5 construct: negative control protein; also called irrelevant protein coated on ELISA wells
Described as above.

Assay [10] concerns the target T2, interleukin 4 (IL4). The experiment in a line: phage ELISA: direct binding of the phage clone to antigen-coated wells (NB = no detectable binding).
The target of assay [11] is T2, interleukin 4 (IL4). The experiment in a line: ELISA: human IgG1 at 250 nM on protein-coated wells, anti-Fc-HRP.
For assay [12], the target named is T3, interleukin 13 (IL13). The experiment in a line: phage competition ELISA: Fab-phage incubated 2 h with serial dilutions of the antigen in solution, unbound phage captured on antigen-coated wells, anti-M13-HRP; IC50 = antigen concentration inhibiting 50% of phage binding. As for the experimental part: as §1
Assay [13] has as its target T1, interleukin 5 (IL5). The experiment in a line: phage competition ELISA (phage IC50), soluble IL5 against IL5-coated wells. As for the experimental part:
as §1
(§2) The relative affinity of each clone was assessed by phage IC₅₀ as above.

The target of assay [14] is T1, interleukin 5 (IL5). The experiment in a line: SPR (Biacore), Fab over immobilized human IL5, 25 °C.
The target of assay [15] is T2, interleukin 4 (IL4). The experiment in a line: phage competition ELISA (phage IC50), soluble IL4 against IL4-coated wells. As for the experimental part: as §1, §2
Assay [16] addresses T4, HER2 ECD. The experiment in a line: ELISA: IgG at 100 nM on immobilized protein, anti-IgG-HRP [panel A].
Assay [17] concerns the target T5, BSA. The assay is described as above.
Assay [18] concerns the target T1, interleukin 5 (IL5). The experiment in a line: SPR (Biacore), Fab over CM5 chip with immobilized human IL5, 25 °C.
The target in assay [19] is T1, interleukin 5 (IL5). The experiment in a line: SPR, Fab over immobilized IL5.
Assay [20] addresses T2, interleukin 4 (IL4). The experiment in a line: SPR (Biacore), Fab over CM5 chip with immobilized IL4, 25 °C.

Here are results for 15 molecules from patent US20160257744A1 (Genentech, published 2016).

Where a chain is given by its changes, count along the chain named.

T5 sequence (P02769 25-607 limits assumed): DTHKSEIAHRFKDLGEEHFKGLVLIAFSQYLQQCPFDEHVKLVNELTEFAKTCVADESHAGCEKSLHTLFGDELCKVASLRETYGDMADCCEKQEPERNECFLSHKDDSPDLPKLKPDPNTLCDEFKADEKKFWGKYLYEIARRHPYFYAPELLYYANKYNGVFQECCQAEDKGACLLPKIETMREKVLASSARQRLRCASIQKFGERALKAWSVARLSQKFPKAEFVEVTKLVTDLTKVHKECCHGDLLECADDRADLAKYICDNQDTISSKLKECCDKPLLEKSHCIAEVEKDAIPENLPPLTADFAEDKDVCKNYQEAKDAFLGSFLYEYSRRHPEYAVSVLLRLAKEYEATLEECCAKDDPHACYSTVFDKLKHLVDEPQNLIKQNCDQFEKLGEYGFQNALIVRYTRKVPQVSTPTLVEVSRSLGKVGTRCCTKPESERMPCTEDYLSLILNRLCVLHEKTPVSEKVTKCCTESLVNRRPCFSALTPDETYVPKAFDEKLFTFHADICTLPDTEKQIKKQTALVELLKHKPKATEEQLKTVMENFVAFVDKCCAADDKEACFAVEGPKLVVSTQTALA
T3 sequence (P35225 35-146 limits assumed): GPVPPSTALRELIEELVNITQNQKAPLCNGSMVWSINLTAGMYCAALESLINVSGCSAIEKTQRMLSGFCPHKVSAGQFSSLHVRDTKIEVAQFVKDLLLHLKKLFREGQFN

B1: B1, anti-IL4/IL5 dual specific variant of hu19C11, Fab displayed on phage (Fab, V domains shown)
VH: EVQLVQSGAEVKKPGASVKVSCKASGYTFTDYLMHWVRQAPGQGLEWIAVIVSITGRTYYADDFKGRVTITRDTSTSTAYLELSSLRSEDTAVYYCARGGIFYGMDYWGQGTLVTVSS
VL: DIQMTQSPSSLSASVGDRVTITCKASQSVINDAAWYQQKPGKAPKLLIYYTSHRYTGVPSRFSGSGSGTDFTLTISSLQEDFATYYCQQDYTPFPLTFGQGTKVEIKR
notes: also called clone B1
On to B1, for which the IC50 in [1] and in assay [2] was roughly 1000 nM each time. The binding result in assay [3] is given as “no binding”.

B2: humanized antibody 19C11 (hu19C11) wild-type Fab displayed on M13 phage (Fab, V domains shown)
VH: B1 VH with L33S, A49V, V50W, V52N, S53T, I54E, R57E, T58P, Y59T
VL: DIQMTQSPSSLSASVGDRVTITCKASQSVINDAAWYQQKPGKAPKLLIYYTSHRYTGVPSRFSGSGSGTDFTLTISSLQEDFATYYCQQDYTSPWTFGQGTKVEIKR
notes: Phagemid pV0115: light chain with gD expression tag fused to its C-terminus; VH-CH1 followed by hinge piece KTHTC and M13 minor coat protein p3 (bivalent Fab display); Humanized in germline VH1 / kappa I backbone; also called hu19C11 wt; Fab-displaying phage
Take B2: in assay [2], the half-maximal inhibitory concentration (IC50) came to 1.1 nM. Besides, the binding result in assay [4] and in [3] was “no binding” each time. Moreover, the midpoint of the response in assay [5], the EC50, lay at 1 nM.

B3: humanized antibody 19C11 (hu19C11) as IgG (antibody, V domains shown)
VH: B1 VH with L33S, A49V, V50W, V52N, S53T, I54E, R57E, T58P, Y59T
VL: B2 VL
notes: IgG; also called the antibody as IgG
For B3, the binding result in assay [6], in [7], in assay [8] and in assay [9] was “no binding (tested: 250 nM)” each time.

B4: 5A, anti-IL5 specific variant of hu19C11, Fab displayed on phage (Fab, V domains shown)
VH: EVQLVQSGAEVKKPGASVKVSCKASGYTFTDYDIHWVRQAPGQGLEWIVWINTETGEPTYADDFKGRVTITRDTSTSTAYLELSSLRSEDTAVYYCAREILFYGMDYWGQGTLVTVSS
VL: B2 VL
notes: also called clone 5A
Take B4: the IC50 in [1] is roughly 1000 nM. Further, the binding result in assay [10] and in assay [3] was “no binding” each time.

B5: 5A as human IgG1 (antibody, V domains shown)
VH: B4 VH
VL: B2 VL
B5: the binding result in [7], in [11], in [8] and in assay [9] was “no binding (tested: 250 nM)” in each case.

B6: F2, anti-IL4/IL13 dual specific variant of hu19C11, Fab displayed on phage (Fab, V domains shown)
VH: EVQLVQSGAEVKKPGASVKVSCKASGYTFTDYSMHWVRQAPGQGLEWIGIIFYTGHTYYADDFKGRVTITRDTSTSTAYLELSSLRSEDTAVYYCARGGIFYGMDYWGQGTLVTVSS
VL: B2 VL
B6: the IC50 is 14.8 nM in assay [2] and roughly 1000 nM in assay [12]. Moreover, in [4], the binding result is “no binding”.

B7: F2 as human IgG1 (antibody, V domains shown)
VH: B6 VH
VL: B2 VL
With B7, the binding result in [6], in assay [7] and in assay [9] was “no binding (tested: 250 nM)” in each case.

B8: E7, anti-IL4/IL5 dual specific variant of hu19C11, Fab displayed on phage (Fab, V domains shown)
VH: EVQLVQSGAEVKKPGASVKVSCKASGYTFTDYFIHWVRQAPGQGLEWIAGIVYDATGFTTYADDFKGRVTITRDTSTSTAYLELSSLRSEDTAVYYCARGGIFYGMDYWGQGTLVTVSS
VL: B2 VL
notes: also called clone E7
Turning to B8, the IC50 in [1] and in assay [13] was roughly 1000 nM each time. Moreover, in assay [3], the binding result is on record as “no binding”.

B9: E7 purified as Fab (Fab, V domains shown)
VH: B8 VH
VL: B2 VL
notes: also called IL4/IL5 dual specific clone E7
Take B9: in assay [14], binding was put at a Kd of 905 nM.

B10: 1C.60 (Fab, V domains shown)
VH: B8 VH with T60V
VL: B2 VL with T92K, S93H
notes: same clone as m17 and m19, here in the phage format
As to B10, the IC50 in [13] amounted to 3.67 nM; in assay [15], 1.1 nM.

B11: 1C.36 (Fab, V domains shown)
VH: B8 VH with A49G, D63E, D64E
VL: B2 VL with S93H
notes: same clone as m16 and m18, here in the phage format
As to B11, the IC50 was 0.9 nM in [13] and 2.1 nM in assay [15].

B12: F1, anti-IL4/IL13 dual specific variant of hu19C11, Fab displayed on phage (Fab, V domains shown)
VH: B6 VH with I50V, Y53Q, T54S, H56A
VL: B2 VL
B12: the IC50 was 22.3 nM in [2] and roughly 1000 nM in assay [12]. The binding result in assay [4] is “no binding”.

B13: 1C60, affinity-matured variant of E7, as IgG (antibody, V domains shown)
VH: B8 VH with T60V
VL: B2 VL with T92K, S93H
Regarding B13, the binding result in assay [16] and in assay [17] was “no binding (tested: 100 nM)” throughout.

B14: 1C36, affinity-matured variant of E7, as IgG (antibody, V domains shown)
VH: B8 VH with A49G, D63E, D64E
VL: B2 VL with S93H
For the molecule B14, the binding result in assay [16] and in assay [17] was “no binding (tested: 100 nM)” each time.

B15: 1C60, affinity-matured variant of E7, purified as Fab (Fab, V domains shown)
VH: B8 VH with T60V
VL: B2 VL with T92K, S93H
notes: Purified Fab for SPR
B15: in assay [18], the koff was found to be 0.000552 s⁻¹ and the on-rate (kon) is 12400 M⁻¹ s⁻¹. In assay [19], the Kd was 44.4 nM and the “fold improvement of affinity toward IL5 against E7” value came to 20 fold. Further, in assay [20], binding was put at a Kd of 4.9 nM, the koff amounted to 0.00342 s⁻¹ and the kon came to 697000 M⁻¹ s⁻¹.
